Measured values taken from paper PMC11404848, “Stenotrophomonas maltophilia uses a c-di-GMP module to sense the mammalian body temperature during infection” (PLOS Pathogens, 2024).

Legend:
[1] = molecular target: BtsD^ΔSP (Stenotrophomonas maltophilia CGMCC 1.1788); assay: native gel or EMSA; purified BtsD^ΔSP in 2 mM HEPES, 20 mM K2HPO4, pH 7.9, 2 h at 28°C or 37°C, directly or after a gradual 30-min upshift from 0°C; native gel; fewer tetramers at 37°C
[2] = system: T1, BtsR (Stenotrophomonas maltophilia CGMCC 1.1788), ORF:ddddda88; assay: EMSA
T1 sequence: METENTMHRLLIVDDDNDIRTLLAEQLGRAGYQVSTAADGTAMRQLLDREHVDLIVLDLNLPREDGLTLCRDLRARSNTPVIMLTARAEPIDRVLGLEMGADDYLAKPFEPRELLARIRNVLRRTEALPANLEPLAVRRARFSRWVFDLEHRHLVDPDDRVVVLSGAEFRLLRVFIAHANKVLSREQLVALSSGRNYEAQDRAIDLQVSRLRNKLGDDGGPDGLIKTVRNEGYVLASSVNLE

| Substance | stoichiometry N [1] | binding [2] |
| --- | --- | --- |
| BtsD^ΔSP (enzyme) | 4 | – |
| CCGGTGAGGTTCGAAAAGCGGGTTCTGGTAGTGCCGGCCGCTGGCCGGCAACCCGACCTTCGCTGATTGCCGGCCAGCGGCCGGCACTACCATGCCGCTCTTGCTCCCTTTCACGCATCCCCCCCCCCCGCCCCTTGACCTCAACCAATGTTGAGGTGCGATAACAGTCTCCCCACGGCCAGCCCTCTGGCCTTCCCCACGGAGATTGCTTCA (double strand) [sod1-3 promoter probe] | – | binds |
